Reference: article PMC9669019, “Molecular basis for integrin adhesion receptor binding to p21-activated kinase 4 (PAK4)” (Communications Biology, 2022)
Where a chain is given by its changes, count along the chain named. In names and notes the source's numbering stands.

B1: D444A: GFP-tagged PAK4 D444A mutant; catalytic domain (Fig 4G) or full-length (Fig 4H) (protein, UniProt O96013 1-591, looked up, variant D444A)
Serine/threonine-protein …: MFGKRKKRVEISAPSNFEHRVHTGFDQHEQKFTGLPRQWQSLIEESARRPKPLVDPACITSIQPGAPKTIVRGSKGAKDGALTLLLDEFENMSVTRSNSLRRDSPPPPARARQENGMPEEPATTARGGPGKAGSRGRFAGHSEAGGGSGDRRRAGPEKRPKSSREGSGGPQESSRDKRPLSGPDVGTPQPAGLASGAKLAAGRPFNTYPRADTDHPSRGAQGEPHDVAPNGPSAGGLAIPQSSSSSSRPPTRARGAPSPGVLGPHASEPQLAPPACTPAAPAVPGPPGPRSPQREPQRVSHEQFRAALQLVVDPGDPRSYLDNFIKIGEGSTGIVCIATVRSSGKLVAVKKMDLRKQQRRELLFNEVVIMRDYQHENVVEMYNSYLVGDELWVVMEFLEGGALTDIVTHTRMNEEQIAAVCLAVLQALSVLHAQGVIHRDIKSASILLTHDGRVKLSDFGFCAQVSKEVPRRKSLVGTPYWMAPELISRLPYGPEVDIWSLGIMVIEMVDGEPPYFNEPPLKAMKMIRDNLPPRLKNLHKVSPSLKGFLDRLLVRDPAQRATAAELLKHPFLAKAGPPASIVPLMRQNRTR
modifications: GFP tag; catalytic domain or full-length
B2: D444R: GFP-tagged PAK4 D444R mutant; catalytic domain (Fig 4G) or full-length (Fig 4H) (protein, UniProt O96013 1-591, looked up, variant D444R)
Serine/threonine-protein …: B1 Serine/threonine-protein … with A444R
modifications: GFP tag; catalytic domain or full-length
B3: M482K: GFP-tagged PAK4 M482K mutant; catalytic domain (Fig 4G) or full-length (Fig 4H) (protein, UniProt O96013 1-591, looked up, variant M482K)
Serine/threonine-protein …: B1 Serine/threonine-protein … with A444D, M482K
modifications: GFP tag
B4: Q358A: GFP-tagged PAK4 Q358A mutant; catalytic domain (Fig 4G) or full-length (Fig 4H) (protein, UniProt O96013 1-591, looked up, variant Q358A)
Serine/threonine-protein …: B1 Serine/threonine-protein … with Q358A, A444D
modifications: GFP tag
B5: E512R: GFP-tagged PAK4 E512R mutant; catalytic domain (Fig 4G) or full-length (Fig 4H) (protein, UniProt O96013 1-591, looked up, variant E512R)
Serine/threonine-protein …: B1 Serine/threonine-protein … with A444D, E512R
modifications: GFP tag
B6: E512A: GFP-tagged PAK4 E512A mutant; catalytic domain (Fig 4G) or full-length (Fig 4H) (protein, UniProt O96013 1-591, looked up, variant E512A)
Serine/threonine-protein …: B1 Serine/threonine-protein … with A444D, E512A
modifications: GFP tag; catalytic domain or full-length

System: integrin β5 tail
Assay: Pull-down of wild-type and mutated full-length GFP-PAK4 by wild-type integrin β5 tail
Assay type: binding
Details: Figure 4H source data; full-length PAK4; experiment row r4
Method: (§1) Pull down assays were performed as previously described[45],[60]. Briefly, constructs encoding an N-terminal His-tag followed by a helical region, a 4-glycine spacer, and an integrin cytoplasmic tail sequence were produced in BL21 (DE3) bacteria. Following bacterial cell lysis, recombinant protein was bound to Ni-NTA beads, eluted with imidazole, dialyzed and further purified by reverse-phase high-performance liquid chromatography (HPLC). Purified protein was lyophilized for storage and was used to coat fresh Ni-NTA beads to generate an affinity matrix for pull-down assays.
(§2) For pulldowns from cell lysates, human PAK4 constructs were generated in pEGFP (Takara Bio Inc.) by PCR amplification from a pLX304 PAK4 isoform 1 (Uniprot O96013-1) construct kindly provided by Michael Calderwood (Dana-Farber Cancer Institute). Mutations and deletions were introduced by QuikChange mutagenesis or PCR amplification. Chinese hamster ovary (CHO) cells were seeded on 10 cm tissue culture dishes and transiently transfected with GFP-tagged constructs using polyethylenimine (Polysciences). After 24 h, cells were harvested and lysed in buffer X (1 mM NaVO4, 50 mM NaF, 40 mM sodium pyrophosphate, 50 mM NaCl, 150 mM sucrose, 10 mM Pipes, pH 6.8) containing 0.5% Triton X-100, 0.2% deoxycholic acid, and complete EDTA-free protease inhibitor mixture (Roche, Indianapolis, IN, USA) for 15 min at 4 °C. After clarification by centrifugation, lysate was diluted in buffer X-T (buffer X with 0.05% Triton X-100) and incubated with His-tagged integrin tails coupled to Ni-NTA beads for 4 h with rocking at 4 °C. For experiments using purified PAK4cat, protein was incubated with His-tagged integrin tails coupled to Ni-NTA beads in buffer X-T for 2 h with rocking at 4 °C. Beads were then washed three times with buffer X-T, and bound proteins were fractionated by reducing SDS-PAGE and analyzed by immunoblotting with anti-GFP antibodies (600-101-215, Rockland). Immunoblots were imaged on an Odyssey IR imaging system (Li-Cor; Lincoln, NE, USA) and analyzed using Image Studio Lite (Li-Cor; Lincoln, NE, USA). For the quantification of binding from immunoblots, the fluorescence intensity of the band corresponding to bound material was quantified as a fraction of the fluorescence of the input material band for each condition. Loading of integrin tails was assessed by Coomassie Blue staining. Data were analyzed using GraphPad Prism.

Molecule	Binding to wild-type integrin β5 tail, normalized to FL-WT
B1	0.235
B2	0.011
B3	0.259
B4	0.221

Same assay, conditions: Figure 4H; experiment row r5

Molecule	Binding to wild-type integrin β5 tail, normalized to FL-WT
B1	0.008
B5	0.472
B3	1.377
B4	0.9415
B6	0.029

Same assay, conditions: Figure 4H; experiment row r6

Molecule	Binding to wild-type integrin β5 tail, normalized to FL-WT
B5	0.89
B3	0.432
B6	0.62

Same assay, conditions: Figure 4H; experiment row r7

Molecule	Binding to wild-type integrin β5 tail, normalized to FL-WT
B5	0.486
B2	0.517
B3	0.512
B6	0.561

Same assay, conditions: Figure 4H; experiment row r8

Molecule	Binding to wild-type integrin β5 tail, normalized to FL-WT
B5	0.106
B3	0.381
B4	0.58
B6	0.262

Same assay, conditions: Figure 4H; experiment row r9

Molecule	Binding to wild-type integrin β5 tail, normalized to FL-WT
B5	0.64
B6	0.4

Same assay, conditions: Figure 4H; experiment row r10

Molecule	Binding to wild-type integrin β5 tail, normalized to FL-WT
B3	1.044
B4	3.01

Same assay, conditions: Figure 4H; experiment row r11

Molecule	Binding to wild-type integrin β5 tail, normalized to FL-WT
B3	0.278

Same assay, conditions: Figure 4H; experiment row r13

Molecule	Binding to wild-type integrin β5 tail, normalized to FL-WT
B2	0.253

Same assay, conditions: Figure 4H; experiment row r14

Molecule	Binding to wild-type integrin β5 tail, normalized to FL-WT
B1	0.233
B2	0.329

Same assay, conditions: Figure 4H; experiment row r15

Molecule	Binding to wild-type integrin β5 tail, normalized to FL-WT
B1	0.015
B2	0.208

Same assay, conditions: Figure 4H; experiment row r17

Molecule	Binding to wild-type integrin β5 tail, normalized to FL-WT
B3	0.149
B4	1.265
B6	0.03

Same assay, conditions: Figure 4H; experiment row r18

Molecule	Binding to wild-type integrin β5 tail, normalized to FL-WT
B4	0.66

Same assay, conditions: Figure 4H; experiment row r19

Molecule	Binding to wild-type integrin β5 tail, normalized to FL-WT
B3	0.8
B4	1.25
B6	0.1

System: integrin β5 tail
Assay: Pull-down of wild-type and mutated GFP-PAK4 catalytic domain by wild-type integrin β5 tail
Assay type: binding
Details: Figure 4G source data; PAK4 catalytic domain; replicate 1
Method: as §1, §2

Molecule	Binding to wild-type integrin β5 tail, normalized to cat-WT
B1	0.04069
B5	0.1343
B2	0.1667
B3	0.517
B4	0.8373
B6	0.4077

Same assay, conditions: Figure 4G; replicate 2

Molecule	Binding to wild-type integrin β5 tail, normalized to cat-WT
B1	0.001166
B5	0.09959
B2	0.1098
B3	0.2755
B4	0.4614
B6	0.4295

Same assay, conditions: Figure 4G; replicate 3

Molecule	Binding to wild-type integrin β5 tail, normalized to cat-WT
B1	0.2433
B5	0.2543
B2	2.475e-5
B3	0.5038
B4	0.71
B6	0.5407

Same assay, conditions: Figure 4G; replicate 4

Molecule	Binding to wild-type integrin β5 tail, normalized to cat-WT
B1	0.09577
B5	0.09217
B2	0.334
B3	0.2427
B4	1.075
B6	0.2568

Same assay, conditions: Figure 4G; replicate 5

Molecule	Binding to wild-type integrin β5 tail, normalized to cat-WT
B1	3.582e-6
B5	0.08446
B2	0.004908
B3	0.2915
B4	0.4677
B6	0.7435

Same assay, conditions: Figure 4G; replicate 6

Molecule	Binding to wild-type integrin β5 tail, normalized to cat-WT
B1	0.09749
B5	0.3379
B2	0.1746
B3	0.007133
B4	1.0032
B6	0.2789

Same assay, conditions: Figure 4G; replicate 7

Molecule	Binding to wild-type integrin β5 tail, normalized to cat-WT
B1	0.0832
B2	0.115
B4	1.283
B6	0.1085

Same assay, conditions: Figure 4G; replicate 8

Molecule	Binding to wild-type integrin β5 tail, normalized to cat-WT
B4	1.183

Same assay, conditions: Figure 4G; replicate 9

Molecule	Binding to wild-type integrin β5 tail, normalized to cat-WT
B4	0.828

Same assay, conditions: catalytic domain (Fig. 4g) and full-length PAK4 (Fig. 4h)

Molecule	Effect of PAK4 mutation on pull-down by integrin β5
B1	strong inhibition
B5	strong inhibition
B3	moderate effect
B4	no effect on binding
